Assay [1] addresses VEGFR2 (Homo sapiens) (UniProt P35968). As to the kind of experiment: ITC. The note with it: cited from earlier work.
Assay [2] shares this target. As to the kind of experiment: SPR. The note with it: cited from earlier work.
Assay [3] addresses VEGFR2 recombinant protein, intracellular domain (aa 789 to end) (UniProt P35968). As to the kind of experiment: far-Western, overlay or dot blot; 0.5 to 8.0 ug VEGFR2 (aa 789 to end) on SDS-PAGE, transferred to PVDF; overlaid with V5-tagged L-FABP (1 ug/ml) for 12 hours; anti-V5 detection; Kd by non-linear regression (GraphPad Prism 5).

With VEGF-A (from UniProt P15692), the Kd (commonly a measure of binding affinity in units of concentration) in assay [1] was 18 nM; in assay [2], 36.7 nM.
In the case of “Liver fatty acid-binding protein (L-FABP), V5-tagged recombinant protein expressed in Hus cells (from UniProt P07148 1-127) (natural protein)”, the Kd in assay [3] amounted to 0.25 nM.

The values above are taken from publication PMC4951284.
